Test results as given in PMC12485025.

T1: p1 NTR (Tetrahymena, UniProt Q22VV9 1-150)
T1 sequence: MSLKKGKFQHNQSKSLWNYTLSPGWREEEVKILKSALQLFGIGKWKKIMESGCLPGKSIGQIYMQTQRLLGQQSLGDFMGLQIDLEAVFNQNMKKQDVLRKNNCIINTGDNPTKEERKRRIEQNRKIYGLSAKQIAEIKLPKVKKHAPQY


Molecular target: T1, p1 NTR
Assay: fluorescence polarization

Binder | Kd [nM]
umDNA 6-FAM (dsDNA) DNA 1: AACTTTCTTAACATCTTAACTTTAACT DNA 2: AGTTAAAGTTAAGATGTTAAGAAAGTT | 37
hmDNA 6-FAM (27ATrich_6mA_s / 27ATrich_6FAM_a) (dsDNA, N6-methyl-dA at position 13 of strand 1) DNA 1: AACTTTCTTAACATCTTAACTTTAACT DNA 2: AGTTAAAGTTAAGATGTTAAGAAAGTT | 35
